B1: Nb4 (VHH)
VHH: QVQLVESGGGVVQTGGSLRLSCAASGRTFSTYGMGWFRQAPGKEREFVAAISGSGGMTYYGDPVKGRFTISRDNAVNTVYLQMNNLKPEDTAVYICAVGAYYSGGSRAQNYEYWGQGTQVTVSS
notes: also called nanobody 4; source: E. coli BL21, purified (Ni2+ beads, SEC); not shown: His6, C-terminal, kept
B2: Nb5 (VHH)
VHH: QVQLVESGGGVVQTGGSLRLSCAASGRTFSTYGMGWFRQAPGKEREFVAAISGSGGMTYYGDPVKGRFTISRDNAVNTVYLQMNNLKAEDTAVYVCAVGAYYSGGSRAQNYEYWGQGTQVTVSS
notes: also called nanobody 5; source: E. coli BL21, purified (Ni2+ beads, SEC); not shown: His6, C-terminal, kept
B3: Nb1 (VHH)
VHH: QVQLVESGGGLVQAGDSLRLSCAASGRTFSNYAMGWFRQAPGKEREFVAAISGGGGTTYYSDSVKGRFTISRDNAKSTVYLQMNSLKPEDTAVYFCASSTYYMPSRAADTYTYWGQGTQVTVSS
notes: also called nanobody 1; source: E. coli BL21, purified (Ni2+ beads, SEC); not shown: His6, C-terminal, kept
B4: Nb2 (VHH)
VHH: QLQLVETGGGLVQAGDSLRLSCAASGRTFSNYAMGWFRQAPGKEREFVAAISGGGGTTYYSDSVKGRFTISRDNAKSTVYLQMNSLKPEDTAVYFCASSTYYMPSRAADTYTYWGQGTQVTVSS
notes: also called nanobody 2; source: E. coli BL21, purified (Ni2+ beads, SEC); not shown: His6, C-terminal, kept
B5: Nb8 (VHH)
VHH: QVQLVETGGGLVQAGGSLRLSCAASGRAFSSYGMGWFRQAPGKEREFVAAVSGSGATTIYADSVKGRFTISRDNAVNTVYLHMNDLKPDDTAVYYCAVGKYYSGSRQSHNYDYWGQGTQVTVSS
notes: also called nanobody 8; source: E. coli BL21, purified (Ni2+ beads, SEC); not shown: His6, C-terminal, kept
B6: Nb9 (VHH)
VHH: QLQLVESGGGVVQAGGSLRLSCAASGRTFSSYGMGWFRQAPGKEREFASAISGSGGSTYYADSVKGRFTISRDNAKNTVYLQMNSLKPEDTAVYYCARSRYYSGGRSLLEYDYWGQGTQVTVSS
notes: also called nanobody 9; source: E. coli BL21, purified (Ni2+ beads, SEC); not shown: His6, C-terminal, kept
B7: Nb10 (VHH)
VHH: QVQLVESGGGLVQTGGSLRLSCAASGLTFSSYNMGWFRQAPGKEREFLGAIWSSGFTYYLDSVKGRFTISRDNAKNTVYLQMDSLKPEDTAVYYCAAARRLLTQAAAVMFNSYDYWGQGTRVTVSS
B8: Nb7 (VHH)
VHH: QVQLVESGGGLVQAGGSLRLSCAASGLTFSAYNMGWFRQAPGKEREFVGAIWSSSFTYYLDSLKGRFTISRDNTKNTVYLQMNSLKPEDTAVYYCAAARRLLTQAGAVLTTSYEYWGQGTQVTVSS
B9: Nb6 (VHH)
VHH: QLQLVETGGGLVQAGGSLRLSCAASGLIFSSYNMGWFRQAPGKEREFVGAIWSSSFTYLLDSVKGRFTISRDNAKNTVYLQMNSLKPEDTAVYYCAASRRLLTQGSAVSTTSYEYWGQGTQVTVSS
B10: Nb11 (VHH)
VHH: QVQLVETGGGLVQAGDSLRLACAHSGRTFSTYAMGWFRQAPGKEREFVAAISGSGGTTIYADSVTGRFTISRDNTKNTVYLQMNSLKPEDTAVYSCAASQYYMGSRSTENYNVWGQGTQVTVSS

target: T1, zinc-transporting PIB-ATPase ZntA from Shigella sonnei (Shigella sonnei (UniProt Q3YW59, strain …, UniProt Q3YW59)); test: SEC; details: both partners purified
T1 construct: HisTag removed with TEVp; also called SsZntA; HisTag-free SsZntA; not shown: His8, N-terminal, cleaved
T1 sequence (Q3YW59 whole entry, one chain of several): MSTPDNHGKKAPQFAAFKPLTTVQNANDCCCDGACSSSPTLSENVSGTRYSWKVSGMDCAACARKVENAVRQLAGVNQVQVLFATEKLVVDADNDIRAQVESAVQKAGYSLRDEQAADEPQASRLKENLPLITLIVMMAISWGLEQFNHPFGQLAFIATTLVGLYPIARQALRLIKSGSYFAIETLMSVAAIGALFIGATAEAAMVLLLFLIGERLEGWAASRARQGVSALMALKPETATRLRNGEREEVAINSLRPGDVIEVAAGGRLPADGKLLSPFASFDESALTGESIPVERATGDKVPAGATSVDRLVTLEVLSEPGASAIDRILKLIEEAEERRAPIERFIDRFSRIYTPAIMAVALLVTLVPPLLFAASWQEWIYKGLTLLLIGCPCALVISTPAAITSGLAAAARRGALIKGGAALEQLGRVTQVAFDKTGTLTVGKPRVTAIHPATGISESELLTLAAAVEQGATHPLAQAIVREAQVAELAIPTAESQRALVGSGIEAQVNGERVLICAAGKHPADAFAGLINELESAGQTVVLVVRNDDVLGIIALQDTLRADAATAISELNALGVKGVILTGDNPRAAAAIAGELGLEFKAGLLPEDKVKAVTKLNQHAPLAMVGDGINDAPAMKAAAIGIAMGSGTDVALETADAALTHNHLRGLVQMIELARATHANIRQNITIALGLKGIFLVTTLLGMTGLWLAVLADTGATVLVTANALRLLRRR

Binder	binding result
B1	binds
B2	binds
B3	binds
B4	binds
B5	binds
B6	binds

target: T1, zinc-transporting PIB-ATPase ZntA from …; test: not given; details: not given

Binder	binding result
B7	binds
B8	binds
B9	binds
B10	binds

— publication PMC6698960, “Isolation and Characterization of Nanobodies against a Zinc-Transporting P-Type ATPase” (Antibodies, 2018)
